Measurements: the supplement of paper PMC10567573

B1: RSPH3 (parent)
chain: FIPAKTGKDVATQILEGELFDFDL

Variants of: B1
Test: protein stability index of a GFP-peptide fusion (GPS, HEK-293T) (PSI 1-6); higher = more stable
Conditions: c terminus: a fixed tail appended
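Further: lentivirally expressed fusions sorted by FACS into six bins by GFP to DsRed ratio, PSI derived from sequencing read proportions per bin multiplied by bin number.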

| Variant | protein stability index |
| --- | --- |
| FNPAKTGKDVATQILEGELFDFDL [I2N] | 2.83 |
| FRPAKTGKDVATQILEGELFDFDL [I2R] | 3.72 |
| FDPAKTGKDVATQILEGELFDFDL [I2D] | 4.39 |
| FGPAKTGKDVATQILEGELFDFDL [I2G] | 3.73 |
| FEPAKTGKDVATQILEGELFDFDL [I2E] | 4.16 |
| FVPAKTGKDVATQILEGELFDFDL [I2V] | 2.26 |
| FTPAKTGKDVATQILEGELFDFDL [I2T] | 2.85 |
| FYPAKTGKDVATQILEGELFDFDL [I2Y] | 2.96 |
| FQPAKTGKDVATQILEGELFDFDL [I2Q] | 3.04 |
| FPPAKTGKDVATQILEGELFDFDL [I2P] | 3.04 |
| FCPAKTGKDVATQILEGELFDFDL [I2C] | 1.55 |
| FHPAKTGKDVATQILEGELFDFDL [I2H] | 2.02 |
| FAPAKTGKDVATQILEGELFDFDL [I2A] | 1.79 |
| FLPAKTGKDVATQILEGELFDFDL [I2L] | 3.02 |
| FSPAKTGKDVATQILEGELFDFDL [I2S] | 2.84 |
| FFPAKTGKDVATQILEGELFDFDL [I2F] | 2.86 |
| FKPAKTGKDVATQILEGELFDFDL [I2K] | 3.86 |
| FWPAKTGKDVATQILEGELFDFDL [I2W] | 2.3 |
| FMPAKTGKDVATQILEGELFDFDL [I2M] | 3.26 |
| FIPWKTGKDVATQILEGELFDFDL [A4W] | 1.6 |
| FIPVKTGKDVATQILEGELFDFDL [A4V] | 2.28 |
| FIPSKTGKDVATQILEGELFDFDL [A4S] | 1.64 |
| FIPMKTGKDVATQILEGELFDFDL [A4M] | 2.74 |
| FIPIKTGKDVATQILEGELFDFDL [A4I] | 1.62 |

| Variant | protein stability index |
| --- | --- |
| FIPQKTGKDVATQILEGELFDFDL [A4Q] | 2.05 |
| FIPCKTGKDVATQILEGELFDFDL [A4C] | 2.08 |
| FIPFKTGKDVATQILEGELFDFDL [A4F] | 2.33 |
| FIPLKTGKDVATQILEGELFDFDL [A4L] | 2.09 |
| FIPEKTGKDVATQILEGELFDFDL [A4E] | 2.51 |
| FIPGKTGKDVATQILEGELFDFDL [A4G] | 2.48 |
| FIPKKTGKDVATQILEGELFDFDL [A4K] | 1.9 |
| FIPHKTGKDVATQILEGELFDFDL [A4H] | 1.62 |
| FIPTKTGKDVATQILEGELFDFDL [A4T] | 1.96 |
| FIPYKTGKDVATQILEGELFDFDL [A4Y] | 1.54 |
| FIPDKTGKDVATQILEGELFDFDL [A4D] | 2.25 |
| FIPPKTGKDVATQILEGELFDFDL [A4P] | 1.55 |
| FIPNKTGKDVATQILEGELFDFDL [A4N] | 2.35 |
| FIPAMTGKDVATQILEGELFDFDL [K5M] | 1.87 |
| FIPAYTGKDVATQILEGELFDFDL [K5Y] | 1.88 |
| FIPAITGKDVATQILEGELFDFDL [K5I] | 1.63 |
| FIPAWTGKDVATQILEGELFDFDL [K5W] | 1.57 |
| FIPAVTGKDVATQILEGELFDFDL [K5V] | 1.72 |
| FIPALTGKDVATQILEGELFDFDL [K5L] | 1.85 |
| FIPAGTGKDVATQILEGELFDFDL [K5G] | 1.97 |
| FIPAFTGKDVATQILEGELFDFDL [K5F] | 2.46 |
| FIPACTGKDVATQILEGELFDFDL [K5C] | 1.87 |
| FIPATTGKDVATQILEGELFDFDL [K5T] | 2.15 |
| FIPAETGKDVATQILEGELFDFDL [K5E] | 2.95 |

| Variant | protein stability index |
| --- | --- |
| FIPADTGKDVATQILEGELFDFDL [K5D] | 2.66 |
| FIPAHTGKDVATQILEGELFDFDL [K5H] | 1.92 |
| FIPANTGKDVATQILEGELFDFDL [K5N] | 2.71 |
| FIPAPTGKDVATQILEGELFDFDL [K5P] | 2.22 |
| FIPASTGKDVATQILEGELFDFDL [K5S] | 2.01 |
| FIPAATGKDVATQILEGELFDFDL [K5A] | 1.77 |
| FIPARTGKDVATQILEGELFDFDL [K5R] | 1.75 |
| FIPAQTGKDVATQILEGELFDFDL [K5Q] | 2.21 |
| FIIAKTGKDVATQILEGELFDFDL [P3I] | 1.97 |
| FIKAKTGKDVATQILEGELFDFDL [P3K] | 2.4 |
| FIMAKTGKDVATQILEGELFDFDL [P3M] | 1.6 |
| FIYAKTGKDVATQILEGELFDFDL [P3Y] | 1.52 |
| FICAKTGKDVATQILEGELFDFDL [P3C] | 1.72 |
| FIVAKTGKDVATQILEGELFDFDL [P3V] | 1.59 |
| FIAAKTGKDVATQILEGELFDFDL [P3A] | 2.27 |
| FISAKTGKDVATQILEGELFDFDL [P3S] | 2.56 |
| FIDAKTGKDVATQILEGELFDFDL [P3D] | 2.63 |
| FIWAKTGKDVATQILEGELFDFDL [P3W] | 2.43 |
| FIRAKTGKDVATQILEGELFDFDL [P3R] | 1.94 |
| FIFAKTGKDVATQILEGELFDFDL [P3F] | 2.2 |
| FITAKTGKDVATQILEGELFDFDL [P3T] | 2.24 |
| FILAKTGKDVATQILEGELFDFDL [P3L] | 2.71 |
| FIQAKTGKDVATQILEGELFDFDL [P3Q] | 2.5 |
| FINAKTGKDVATQILEGELFDFDL [P3N] | 2.24 |

| Variant | protein stability index |
| --- | --- |
| FIHAKTGKDVATQILEGELFDFDL [P3H] | 1.85 |
| FIEAKTGKDVATQILEGELFDFDL [P3E] | 2.83 |
| FIGAKTGKDVATQILEGELFDFDL [P3G] | 2.5 |
| AIPAKTGKDVATQILEGELFDFDL [F1A] | 4.14 |
| DIPAKTGKDVATQILEGELFDFDL [F1D] | 4.77 |
| VIPAKTGKDVATQILEGELFDFDL [F1V] | 3.54 |
| RIPAKTGKDVATQILEGELFDFDL [F1R] | 4.15 |
| YIPAKTGKDVATQILEGELFDFDL [F1Y] | 1.9 |
| NIPAKTGKDVATQILEGELFDFDL [F1N] | 4.98 |
| KIPAKTGKDVATQILEGELFDFDL [F1K] | 4.24 |
| HIPAKTGKDVATQILEGELFDFDL [F1H] | 4.32 |
| MIPAKTGKDVATQILEGELFDFDL [F1M] | 3.93 |
| SIPAKTGKDVATQILEGELFDFDL [F1S] | 4.66 |
| TIPAKTGKDVATQILEGELFDFDL [F1T] | 4.34 |
| IIPAKTGKDVATQILEGELFDFDL [F1I] | 3.89 |
| EIPAKTGKDVATQILEGELFDFDL [F1E] | 5.01 |
| QIPAKTGKDVATQILEGELFDFDL [F1Q] | 4.69 |
| PIPAKTGKDVATQILEGELFDFDL [F1P] | 4.33 |
| WIPAKTGKDVATQILEGELFDFDL [F1W] | 2.66 |
| LIPAKTGKDVATQILEGELFDFDL [F1L] | 3.56 |
| CIPAKTGKDVATQILEGELFDFDL [F1C] | 3.55 |
| GIPAKTGKDVATQILEGELFDFDL [F1G] | 4.84 |
| FIPAKLGKDVATQILEGELFDFDL [T6L] | 1.87 |
